From the supplement of paper PMC9112550, “Optimization of the antimicrobial peptide Bac7 by deep mutational scanning” (BMC Biology, 2022)

System: Escherichia coli TOP10
Assay: shrunken log2 fold change of peptide-encoding DNA abundance (4.5 h post-induction vs induction); higher = less antimicrobial activity (less host growth inhibition)
Conditions: time post-induction: 4.5 h; library: site-saturation at positions 5, 18, 19, 20
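Further: peptides expressed intracellularly from a pBAD plasmid library in pooled LB shake-flask culture, induced with 0.3% L-arabinose, DNA abundance read by NGS, three biological replicates, DESeq2 with apeglm shrinkage.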

RRIRWRPPRLPRPRPRPPYKPRP
shrunken log2 fold change: -0.249

RRIRWRPPRLPRPRPRPPYMPRP
shrunken log2 fold change: -0.16

RRIRWRPPRLPRPRPRPPYQPRP
shrunken log2 fold change: -0.172

RRIRWRPPRLPRPRPRPPYTPRP
shrunken log2 fold change: -0.137

RRIRWRPPRLPRPRPRPQCHPRP
shrunken log2 fold change: -0.13

RRIRWRPPRLPRPRPRPQCWPRP
shrunken log2 fold change: 0.0793

RRIRWRPPRLPRPRPRPQDDPRP
shrunken log2 fold change: 0.0379

RRIRWRPPRLPRPRPRPQEGPRP
shrunken log2 fold change: -0.00127

RRIRWRPPRLPRPRPRPQEIPRP
shrunken log2 fold change: -0.0137

RRIRWRPPRLPRPRPRPQEVPRP
shrunken log2 fold change: -0.0144

RRIRWRPPRLPRPRPRPQFYPRP
shrunken log2 fold change: -0.492

RRIRWRPPRLPRPRPRPQGHPRP
shrunken log2 fold change: 0.0837

RRIRWRPPRLPRPRPRPQGSPRP
shrunken log2 fold change: -0.00843

RRIRWRPPRLPRPRPRPQHKPRP
shrunken log2 fold change: -0.0725

RRIRWRPPRLPRPRPRPQIWPRP
shrunken log2 fold change: 0.0603

RRIRWRPPRLPRPRPRPQLRPRP
shrunken log2 fold change: 0.0178

RRIRWRPPRLPRPRPRPQMEPRP
shrunken log2 fold change: 0.0344

RRIRWRPPRLPRPRPRPQQCPRP
shrunken log2 fold change: 0.112

RRIRWRPPRLPRPRPRPQRMPRP
shrunken log2 fold change: 0.0753

RRIRWRPPRLPRPRPRPQSPPRP
shrunken log2 fold change: 0.0211

RRIRWRPPRLPRPRPRPQSQPRP
shrunken log2 fold change: 0.00151

RRIRWRPPRLPRPRPRPQTWPRP
shrunken log2 fold change: 0.223

RRIRWRPPRLPRPRPRPRCNPRP
shrunken log2 fold change: 0.0644

RRIRWRPPRLPRPRPRPRCRPRP
shrunken log2 fold change: 0.371

RRIRWRPPRLPRPRPRPRDCPRP
shrunken log2 fold change: 0.226

RRIRWRPPRLPRPRPRPRFHPRP
shrunken log2 fold change: -0.293

RRIRWRPPRLPRPRPRPRGMPRP
shrunken log2 fold change: 0.313

RRIRWRPPRLPRPRPRPRGQPRP
shrunken log2 fold change: 0.302

RRIRWRPPRLPRPRPRPRHFPRP
shrunken log2 fold change: 0.223

RRIRWRPPRLPRPRPRPRIGPRP
shrunken log2 fold change: 0.138

RRIRWRPPRLPRPRPRPRIIPRP
shrunken log2 fold change: 0.136

RRIRWRPPRLPRPRPRPRIQPRP
shrunken log2 fold change: 0.273

RRIRWRPPRLPRPRPRPRLGPRP
shrunken log2 fold change: 0.252

RRIRWRPPRLPRPRPRPRLIPRP
shrunken log2 fold change: 0.55

RRIRWRPPRLPRPRPRPRMMPRP
shrunken log2 fold change: 0.0684

RRIRWRPPRLPRPRPRPRSCPRP
shrunken log2 fold change: 0.083

RRIRWRPPRLPRPRPRPRWAPRP
shrunken log2 fold change: 0.662

RRIRWRPPRLPRPRPRPSCGPRP
shrunken log2 fold change: 0.0847

RRIRWRPPRLPRPRPRPSDRPRP
shrunken log2 fold change: -0.0684

RRIRWRPPRLPRPRPRPSGTPRP
shrunken log2 fold change: 0.0142

RRIRWRPPRLPRPRPRPSHSPRP
shrunken log2 fold change: -0.0913

RRIRWRPPRLPRPRPRPSKDPRP
shrunken log2 fold change: -0.412

RRIRWRPPRLPRPRPRPSKKPRP
shrunken log2 fold change: 0.0769

RRIRWRPPRLPRPRPRPSKMPRP
shrunken log2 fold change: -0.0978

RRIRWRPPRLPRPRPRPSLCPRP
shrunken log2 fold change: 0.384

RRIRWRPPRLPRPRPRPSMHPRP
shrunken log2 fold change: -0.0863

RRIRWRPPRLPRPRPRPSNFPRP
shrunken log2 fold change: -0.391

RRIRWRPPRLPRPRPRPSNMPRP
shrunken log2 fold change: -0.923

RRIRWRPPRLPRPRPRPSPLPRP
shrunken log2 fold change: -0.26

RRIRWRPPRLPRPRPRPSQDPRP
shrunken log2 fold change: 0.22

RRIRWRPPRLPRPRPRPSRFPRP
shrunken log2 fold change: -0.0148

RRIRWRPPRLPRPRPRPSSQPRP
shrunken log2 fold change: -0.317

RRIRWRPPRLPRPRPRPSTRPRP
shrunken log2 fold change: 0.00128

RRIRWRPPRLPRPRPRPSVIPRP
shrunken log2 fold change: -0.272

RRIRWRPPRLPRPRPRPSWPPRP
shrunken log2 fold change: 0.0582

RRIRWRPPRLPRPRPRPSYVPRP
shrunken log2 fold change: -0.651

RRIRWRPPRLPRPRPRPTAQPRP
shrunken log2 fold change: 0.894

RRIRWRPPRLPRPRPRPTFAPRP
shrunken log2 fold change: 0.327

RRIRWRPPRLPRPRPRPTGTPRP
shrunken log2 fold change: 0.288

RRIRWRPPRLPRPRPRPTHGPRP
shrunken log2 fold change: -0.0242

RRIRWRPPRLPRPRPRPTHVPRP
shrunken log2 fold change: 0.316

RRIRWRPPRLPRPRPRPTHYPRP
shrunken log2 fold change: 0.0892

RRIRWRPPRLPRPRPRPTIEPRP
shrunken log2 fold change: 0.145

RRIRWRPPRLPRPRPRPTLSPRP
shrunken log2 fold change: 0.3

RRIRWRPPRLPRPRPRPTNGPRP
shrunken log2 fold change: -0.134

RRIRWRPPRLPRPRPRPTNKPRP
shrunken log2 fold change: -0.195

RRIRWRPPRLPRPRPRPTPHPRP
shrunken log2 fold change: 0.427

RRIRWRPPRLPRPRPRPTPTPRP
shrunken log2 fold change: 0.22

RRIRWRPPRLPRPRPRPTPWPRP
shrunken log2 fold change: 0.48

RRIRWRPPRLPRPRPRPTQRPRP
shrunken log2 fold change: 0.133

RRIRWRPPRLPRPRPRPTRAPRP
shrunken log2 fold change: 0.909

RRIRWRPPRLPRPRPRPTRYPRP
shrunken log2 fold change: -0.104

RRIRWRPPRLPRPRPRPTSMPRP
shrunken log2 fold change: -0.0665

RRIRWRPPRLPRPRPRPTTPPRP
shrunken log2 fold change: 0.642

RRIRWRPPRLPRPRPRPTWCPRP
shrunken log2 fold change: 0.242

RRIRWRPPRLPRPRPRPTWDPRP
shrunken log2 fold change: 0.395

RRIRWRPPRLPRPRPRPTYFPRP
shrunken log2 fold change: -0.359

RRIRWRPPRLPRPRPRPVANPRP
shrunken log2 fold change: 0.0636

RRIRWRPPRLPRPRPRPVCSPRP
shrunken log2 fold change: 0.0102

RRIRWRPPRLPRPRPRPVECPRP
shrunken log2 fold change: 0.194

RRIRWRPPRLPRPRPRPVGRPRP
shrunken log2 fold change: 0.0962

RRIRWRPPRLPRPRPRPVGVPRP
shrunken log2 fold change: 0.297

RRIRWRPPRLPRPRPRPVHFPRP
shrunken log2 fold change: -0.0407

RRIRWRPPRLPRPRPRPVIPPRP
shrunken log2 fold change: -0.0775

RRIRWRPPRLPRPRPRPVKQPRP
shrunken log2 fold change: -0.092

RRIRWRPPRLPRPRPRPVLCPRP
shrunken log2 fold change: 0.341

RRIRWRPPRLPRPRPRPVLMPRP
shrunken log2 fold change: -0.0411

RRIRWRPPRLPRPRPRPVLSPRP
shrunken log2 fold change: 0.415

RRIRWRPPRLPRPRPRPVMRPRP
shrunken log2 fold change: 0.0188

RRIRWRPPRLPRPRPRPVNMPRP
shrunken log2 fold change: -0.101

RRIRWRPPRLPRPRPRPVPFPRP
shrunken log2 fold change: 0.122

RRIRWRPPRLPRPRPRPVPHPRP
shrunken log2 fold change: 0.271

RRIRWRPPRLPRPRPRPVQKPRP
shrunken log2 fold change: 0.0836

RRIRWRPPRLPRPRPRPVRVPRP
shrunken log2 fold change: 0.214

RRIRWRPPRLPRPRPRPVTQPRP
shrunken log2 fold change: -0.0775

RRIRWRPPRLPRPRPRPVVFPRP
shrunken log2 fold change: 0.0685

RRIRWRPPRLPRPRPRPVVMPRP
shrunken log2 fold change: -0.0601

RRIRWRPPRLPRPRPRPVVVPRP
shrunken log2 fold change: 0.281

RRIRWRPPRLPRPRPRPVWAPRP
shrunken log2 fold change: 0.263

RRIRWRPPRLPRPRPRPVYQPRP
shrunken log2 fold change: -0.196

RRIRWRPPRLPRPRPRPVYYPRP
shrunken log2 fold change: -0.412

RRIRWRPPRLPRPRPRPWAKPRP
shrunken log2 fold change: 0.279

RRIRWRPPRLPRPRPRPWCCPRP
shrunken log2 fold change: -0.065

RRIRWRPPRLPRPRPRPWCQPRP
shrunken log2 fold change: 0.121

RRIRWRPPRLPRPRPRPWCTPRP
shrunken log2 fold change: 0.118

RRIRWRPPRLPRPRPRPWCYPRP
shrunken log2 fold change: -0.475

RRIRWRPPRLPRPRPRPWDEPRP
shrunken log2 fold change: -0.106

RRIRWRPPRLPRPRPRPWDHPRP
shrunken log2 fold change: -0.0185

RRIRWRPPRLPRPRPRPWEQPRP
shrunken log2 fold change: 0.0277

RRIRWRPPRLPRPRPRPWFHPRP
shrunken log2 fold change: -0.125

RRIRWRPPRLPRPRPRPWFTPRP
shrunken log2 fold change: -0.0224

RRIRWRPPRLPRPRPRPWIHPRP
shrunken log2 fold change: -0.192

RRIRWRPPRLPRPRPRPWIQPRP
shrunken log2 fold change: 0.0861

RRIRWRPPRLPRPRPRPWIVPRP
shrunken log2 fold change: -0.337

RRIRWRPPRLPRPRPRPWIWPRP
shrunken log2 fold change: 0.0705

RRIRWRPPRLPRPRPRPWLFPRP
shrunken log2 fold change: 0.0264

RRIRWRPPRLPRPRPRPWLWPRP
shrunken log2 fold change: 0.242

RRIRWRPPRLPRPRPRPWMGPRP
shrunken log2 fold change: 0.0275

RRIRWRPPRLPRPRPRPWMVPRP
shrunken log2 fold change: 0.0468

RRIRWRPPRLPRPRPRPWNAPRP
shrunken log2 fold change: -0.176

RRIRWRPPRLPRPRPRPWNTPRP
shrunken log2 fold change: -0.195

RRIRWRPPRLPRPRPRPWNYPRP
shrunken log2 fold change: -0.98

RRIRWRPPRLPRPRPRPWPLPRP
shrunken log2 fold change: -0.273

RRIRWRPPRLPRPRPRPWPSPRP
shrunken log2 fold change: 0.018

RRIRWRPPRLPRPRPRPWPTPRP
shrunken log2 fold change: 0.336

RRIRWRPPRLPRPRPRPWSSPRP
shrunken log2 fold change: -0.0663

RRIRWRPPRLPRPRPRPWWWPRP
shrunken log2 fold change: 0.12

RRIRWRPPRLPRPRPRPWYFPRP
shrunken log2 fold change: 0.275

RRIRWRPPRLPRPRPRPYAFPRP
shrunken log2 fold change: 0.107

RRIRWRPPRLPRPRPRPYAHPRP
shrunken log2 fold change: -0.056

RRIRWRPPRLPRPRPRPYCEPRP
shrunken log2 fold change: -0.481

RRIRWRPPRLPRPRPRPYCGPRP
shrunken log2 fold change: -0.187

RRIRWRPPRLPRPRPRPYDFPRP
shrunken log2 fold change: -0.181

RRIRWRPPRLPRPRPRPYFVPRP
shrunken log2 fold change: -0.309

RRIRWRPPRLPRPRPRPYGGPRP
shrunken log2 fold change: -0.683

RRIRWRPPRLPRPRPRPYGMPRP
shrunken log2 fold change: -0.4

RRIRWRPPRLPRPRPRPYHEPRP
shrunken log2 fold change: -0.123

RRIRWRPPRLPRPRPRPYILPRP
shrunken log2 fold change: -0.849

RRIRWRPPRLPRPRPRPYIMPRP
shrunken log2 fold change: -0.116

RRIRWRPPRLPRPRPRPYKAPRP
shrunken log2 fold change: 0.0233

RRIRWRPPRLPRPRPRPYKLPRP
shrunken log2 fold change: -0.327

RRIRWRPPRLPRPRPRPYKNPRP
shrunken log2 fold change: -0.61

RRIRWRPPRLPRPRPRPYKVPRP
shrunken log2 fold change: -0.482

RRIRWRPPRLPRPRPRPYKWPRP
shrunken log2 fold change: -0.484

RRIRWRPPRLPRPRPRPYLHPRP
shrunken log2 fold change: -0.639

RRIRWRPPRLPRPRPRPYLSPRP
shrunken log2 fold change: -0.242

RRIRWRPPRLPRPRPRPYNCPRP
shrunken log2 fold change: -0.331

RRIRWRPPRLPRPRPRPYRGPRP
shrunken log2 fold change: -0.0785

RRIRWRPPRLPRPRPRPYVIPRP
shrunken log2 fold change: -0.0496

RRIRWRPPRLPRPRPRPYVQPRP
shrunken log2 fold change: -0.0608
